Here are results for three molecules from patent US20180319883A1 (Stanford University, published 2018).

In test [1] the target is T1, human SIRPα, endogenous, on THP-1 cells (human, UniProt P78324 31-504).
T1 construct: whole, on cells; also called SIRP-alpha
Briefly: flow cytometry competition on THP-1 cells against 100 nM fluorescent CD47/streptavidin tetramers.

Test [2] deals with T1, human SIRPα, endogenous, on THP-1 cells. Nature of the test: flow cytometry competition on THP-1 cells against CD47 tetramers.

B1: KWAR23, monoclonal CD47-blocking anti-human SIRPα antibody (purified from hybridoma supernatant) (antibody, V domains shown)
VH: EVQLQQSGAELVKPGASVKLSCTASGFNIKDYYIHWVQQRTEQGLEWIGRIDPEDGETKYAPKFQDKATITADTSSNTAYLHLSSLTSEDTAVYYCARWGAYWGQGTLVTVSS
VL: QIVLTQSPAIMSASPGEKVTLTCSASSSVSSSYLYWYQQKPGSSPKLWIYSTSNLASGVPARFSGSGSGTSYSLTISSMEAEDAASYFCHQWSSYPRTFGAGTKLELK
notes: Mouse hybridoma antibody purified by protein G chromatography; also called KWAR23 antibody; intact KWAR23
The molecule B1 displayed an IC50 in test [1] of about 0.27 nM.

B2: KWAR23 scFv LH (N-terminal light chain), monomer expressed in E. coli (scFv)
scFv: QIVLTQSPAIMSASPGEKVTLTCSASSSVSSSYLYWYQQKPGSSPKLWIYSTSNLASGVPARFSGSGSGTSYSLTISSMEAEDAASYFCHQWSSYPRTFGAGTKLELKGTTAASGSSGGSSSGAEVQLQQSGAELVKPGASVKLSCTASGFNIKDYYIHWVQQRTEQGLEWIGRIDPEDGETKYAPKFQDKATITADTSSNTAYLHLSSLTSEDTAVYYCARWGAYWGQGTLVTVS
notes: also called LH scFv; LH monomer
Take B2: the IC50 in test [2] is about 35 nM.

B3: KWAR23 scFv HL (N-terminal heavy chain), monomer expressed in E. coli (scFv)
scFv: EVQLQQSGAELVKPGASVKLSCTASGFNIKDYYIHWVQQRTEQGLEWIGRIDPEDGETKYAPKFQDKATITADTSSNTAYLHLSSLTSEDTAVYYCARWGAYWGQGTLVTVSGGGGSGGGGSGGGGSQIVLTQSPAIMSASPGEKVTLTCSASSSVSSSYLYWYQQKPGSSPKLWIYSTSNLASGVPARFSGSGSGTSYSLTISSMEAEDAASYFCHQWSSYPRTFGAGTKLELK
notes: also called HL scFv; HL monomer
Turning to B3, in test [2], the IC50 was about 35 nM.
